The values that follow come from US20260139049A1.

Like-named read-outs stand apart in the source and are kept apart here.

Assay [1] concerns the target human CLDN6 (human) (UniProt P56747). In words: FACS on HEK293T-CLDN6 cells.
Assay [2] concerns the target monkey CLDN6 (Cyno CLDN6) (monkey (Cyno)). In words: FACS on CHO-K1-Cyno CLDN6 cells.
Assay [3] addresses mouse CLDN6 (mouse) (UniProt Q9Z262). The experiment in a line: FACS on CHO-K1-Mouse CLDN6 cells.
The target of another assay is human CLDN3 (human) (UniProt O15551). In words: FACS on 293T-CLDN3 cells, 10 µg/mL.
Another assay addresses human CLDN4 (human) (UniProt O14493). The experiment in a line: FACS on 293T-CLDN4 cells, 10 µg/mL.
Assay [4] addresses human CLDN6 (human) (UniProt P56747). In words: FACS on 293T-CLDN6 cells, 10 µg/mL.
Assay [5] concerns the target human CLDN9 (human) (UniProt O95484). The experiment in a line: FACS on 293T-CLDN9 cells, 10 µg/mL.
Assay [6] has as its target human CLDN6 (human) (UniProt P56747). In words: FACS on 293T-CLDN6 cells, 10 µg/mL. This is another data set of the same source.
Assay [7] has as its target human CLDN9 (human) (UniProt O95484). In words: FACS on 293T-CLDN9 cells, 10 µg/mL. The source holds these as a separate data set.
Assay [8] has as its target human CLDN6 (human) (UniProt P56747). In words: FACS on 293T-CLDN6 cells, 10 µg/mL. The source holds these as a separate data set.
Assay [9] has as its target human CLDN9 (human) (UniProt O95484). In words: FACS on 293T-CLDN9 cells, 10 µg/mL. This is another data set of the same source.
The target of assay [10] is human CLDN6 (human) (UniProt P56747). In words: FACS on PA-1 tumour cells; target on the cells taken as CLDN6.
For assay [11] the target is unchanged. The assay is described as above. The source holds these as a separate data set.
Assay [12] shares this target. The experiment in a line: FACS on HepG2 tumour cells; target on the cells taken as CLDN6.
Assay [13] shares this target. Described as above. This is another data set of the same source.
Assay [14] has the same target. In words: ratio of FACS Geom.Mean on 293T-CLDN6 over 293T-CLDN9, 10 µg/mL.
Assay [15] has the same target. The experiment in a line: FACS on HepG2 tumour cells, 5 µg/mL; target on the cells taken as CLDN6.
Assay [16] deals with mouse CLDN6 (mouse) (UniProt Q9Z262). In words: FACS.
Assay [17] has the same target. The experiment in a line: FACS; FIG. 20. A general note: In flow cytometry, cells or beads pass a laser one at a time.

Sequence of mouse CLDN6 (mouse) (Q9Z262 whole entry): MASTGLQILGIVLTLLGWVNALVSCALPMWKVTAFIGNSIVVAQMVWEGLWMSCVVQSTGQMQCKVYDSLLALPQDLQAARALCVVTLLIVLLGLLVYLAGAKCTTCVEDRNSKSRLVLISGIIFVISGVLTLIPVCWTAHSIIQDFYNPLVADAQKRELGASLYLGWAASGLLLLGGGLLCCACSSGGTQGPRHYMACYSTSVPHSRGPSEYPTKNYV
Sequence of human CLDN6 (human) (P56747 whole entry): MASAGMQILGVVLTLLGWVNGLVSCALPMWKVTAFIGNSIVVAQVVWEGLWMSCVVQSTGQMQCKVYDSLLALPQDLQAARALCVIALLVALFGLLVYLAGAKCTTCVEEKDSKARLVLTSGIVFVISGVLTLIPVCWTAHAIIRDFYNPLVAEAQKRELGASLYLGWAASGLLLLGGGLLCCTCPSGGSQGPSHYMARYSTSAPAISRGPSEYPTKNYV
Sequence of human CLDN9 (human) (O95484 whole entry): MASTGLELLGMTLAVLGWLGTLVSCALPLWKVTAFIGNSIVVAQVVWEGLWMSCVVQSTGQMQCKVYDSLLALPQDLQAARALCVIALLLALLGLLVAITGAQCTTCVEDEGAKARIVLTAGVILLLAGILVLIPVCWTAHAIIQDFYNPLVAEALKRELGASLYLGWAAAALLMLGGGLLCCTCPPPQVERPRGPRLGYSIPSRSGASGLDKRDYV
Sequence of human CLDN4 (human) (O14493 whole entry): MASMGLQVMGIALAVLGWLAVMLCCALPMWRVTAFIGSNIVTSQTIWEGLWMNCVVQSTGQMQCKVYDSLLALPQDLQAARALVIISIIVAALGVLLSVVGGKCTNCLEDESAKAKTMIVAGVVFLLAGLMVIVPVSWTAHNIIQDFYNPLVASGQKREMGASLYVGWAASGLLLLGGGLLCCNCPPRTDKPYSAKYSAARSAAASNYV
Sequence of human CLDN3 (human) (O15551 whole entry): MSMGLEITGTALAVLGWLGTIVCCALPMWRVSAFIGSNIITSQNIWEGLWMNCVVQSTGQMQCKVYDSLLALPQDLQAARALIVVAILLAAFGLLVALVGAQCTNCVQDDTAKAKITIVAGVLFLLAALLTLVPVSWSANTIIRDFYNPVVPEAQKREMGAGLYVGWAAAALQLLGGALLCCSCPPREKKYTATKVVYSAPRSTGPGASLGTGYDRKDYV

By EC50 is commonly meant the concentration needed to bring the measured effect to its halfway point. With Human IgG (antibody), the concentration for a half-maximal effect (EC50) is 323 µg/mL with human CLDN6 (human) [1]; 132 µg/mL in assay [2]; 78.8 µg/mL in the assay with mouse CLDN6 (mouse) [3]; 138 mg/mL with human CLDN6 (human) [10]; 194 µg/mL with human CLDN6 (human) [11]; 63.7 mg/mL with human CLDN6 (human) [12]. For the same substance, the EC50 with human CLDN6 (human) [13] was 77.5 µg/mL. Also, the FACS signal with human CLDN6 (human) [1] was found to be 136. For the same substance, the Geom.Mean was found to be 168 with human CLDN3 (human); 158 with human CLDN4 (human); 196 with human CLDN6 (human) [4]; 119 in the assay with human CLDN9 (human) [5]; 163 in the assay with human CLDN6 (human) [6]; 79.4 with human CLDN9 (human) [7]. The Geom.Mean in the assay with human CLDN6 (human) [8] amounted to 222; with human CLDN9 (human) [9], 295; with human CLDN6 (human) [15], 57.6. Further, the CLDN6/CLDN9 ratio in the assay with human CLDN6 (human) [14] came out at 1.6.
Regarding IMAB027, the EC50 in the assay with mouse CLDN6 (mouse) [16] and with mouse CLDN6 (mouse) [17] was 0.332 µg/mL in each case.
